According to patent publication US20110104157A1, “LIVER CANCER DRUG” (Chugai Seiyaku Kabushiki Kaisha, priority 2008, published 2011):
Blank lines part the entries; values can stand above or below the molecule they belong to.

Columns and labels:
HuH-7 xenograft = assay: Example 2 antitumor effect, HuH-7 xenograft mouse model (hGC33 and Sorafenib); type: in vivo; conditions: hGC33 5 mg/kg i.v. weekly x3 alone or Sorafenib 80 mg/kg oral 5 times per week x3 alone
Description: (§1) HepG2 cells or HuH-7 cells (5×10^5 cells) dispersed in 50% Matrigel (Becton Dickinson) were subcutaneously implanted. When the tumor volume reached 250 mm^3, the mice were divided into groups and administration commenced.
(§2) The asterisks in the figures indicate that P<0.05, based on the Dunnett's test. […] The open circles indicate the change in body weight in the group given the vehicle. […] The open squares indicate the change in body weight in the group given only Sorafenib in a dose of 80 mg/kg. […]

[1] = Example 5 body weight loss in HepG2 xenograft mouse model; type: in vivo; conditions: Sorafenib 80 mg/kg oral
Source text: Sorafenib was synthesized according to Organic Process Research & Development (2002) 6, 777-781.
Th data is expressed by the time course of the body weight of the mice (mean±SD).

[2] = Example 2 body weight loss in HepG2 xenograft mouse model; type: in vivo; conditions: Sorafenib 80 mg/kg oral, relative to tumor-associated weight loss of the model
Description: as §1, §2

liver cancer = liver cancer patients, phase II; cited from earlier work
[3] = thermal denaturation midpoint temperature (Tm) by DSC, Reference Example 3; type: physicochemical; conditions: Fab domain peak, sodium acetate buffer pH 6.0 with 150 mmol/L NaCl, about 1 K/minute
Description: The thermal denaturation midpoint temperature (Tm) was determined by the top of the denaturation peak in the thermogram (Cp versus T) obtained after heating the test sample solution at a constant programmed heating rate. The Tm value of the humanized H0L0 antibody was measured using a sample solution for DSC measurement prepared as described in the following. The antibody solution (corresponding to 50 to 100 μg) filled in a dialysis membrane was first dialyzed for 24 hours against a dialysis external solution of 20 mol/L sodium acetate buffer solution (pH 6.0) containing 150 mmol/L sodium chloride. Subsequently, the sample solution was adjusted its antibody concentration of 50 to 100 μg/mL with dialysis external solution and used as the sample solution for DSC measurement.
A suitable DSC instrument, for example, DSC-II (Calorimetry Sciences Corporation), is used for this experiment. The sample solution prepared as described above and the reference solution (dialysis external solution) were thoroughly degassed, and each of these test specimens was placed in a calorimeter cell and was thermally equilibrated at 40° C. A DSC scan was then run from 40° C. to 100° C. at a scan rate of approximately 1 K/minute. The results of this measurement are given as the top of the denaturation peak as a function of temperature.

liver cancer cells = conditions: against liver cancer cells; see WO 2006/006693; cited from earlier work
[4] = biological target: T1, soluble GPC3 core polypeptide (Homo sapiens (Human), UniProt P51654 25-563); assay: competitive ELISA, soluble GPC3 core polypeptide on plate, competitor biotinylated H0L0
T1 construct: It was immobilised on the ELISA plate at 1 ug/mL; also called glypican 3; antigen glypican 3
T1 sequence (P51654 other isoform, or with tags, fused parts or gaps limits assumed): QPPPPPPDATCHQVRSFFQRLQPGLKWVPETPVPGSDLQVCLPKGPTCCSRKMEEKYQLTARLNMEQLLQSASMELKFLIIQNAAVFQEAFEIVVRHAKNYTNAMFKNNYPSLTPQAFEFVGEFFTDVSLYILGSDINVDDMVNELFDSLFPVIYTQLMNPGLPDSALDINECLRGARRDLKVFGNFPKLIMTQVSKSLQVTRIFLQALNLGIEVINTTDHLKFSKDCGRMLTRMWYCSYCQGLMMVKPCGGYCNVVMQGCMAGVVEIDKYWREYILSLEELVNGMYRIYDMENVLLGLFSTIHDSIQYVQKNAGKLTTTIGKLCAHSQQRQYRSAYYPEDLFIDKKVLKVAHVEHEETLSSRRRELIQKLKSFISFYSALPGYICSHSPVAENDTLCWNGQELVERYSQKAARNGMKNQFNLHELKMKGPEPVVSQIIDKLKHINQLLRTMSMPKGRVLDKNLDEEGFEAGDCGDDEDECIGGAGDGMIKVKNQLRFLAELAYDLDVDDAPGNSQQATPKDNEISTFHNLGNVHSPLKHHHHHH
Description: 100 μL of the soluble GPC3 core polypeptide (SEQ ID NO: 36) at 1 μg/mL was added to each well of a 96-well plate. The soluble GPC3 core polypeptide was immobilized on the plate by allowing the plate to stand overnight at 4° C. The soluble GPC3 core polypeptide immobilized on the plate was washed 3 times with a washing buffer using a Skan WASHER400 (Molecular Devices); and blocked with 200 μL blocking buffer at 4° C. for at least 30 min. The blocked plate on which soluble GPC3 core polypeptide was immobilized was then washed 3 times with washing buffer using the Skan WASHER400. […] The plate was left stand for 1 hour at room temperature, then washed 5 times with washing buffer using the Skan WASHER400 (Molecular Devices). 100 μL goat anti-streptavidin alkaline phosphatase (ZYMED), diluted 20,000× with substrate buffer, was added to each well, and the resulting plate was left stand for 1 hour at room temperature, and then washed 5 times with washing buffer using the Skan WASHER400. Phosphatase Substrate (Sigma) was prepared at 1 mg/mL in the substrate buffer, added at 100 μL, per well for 1 hour. The absorbance at 405 nm of the reaction solution in each well was measured using a Benchmark Plus (BIO-RAD), with the control absorbance at 655 nm.

[5] = biological target: soluble GPC3 core polypeptide (Homo sapiens, UniProt P51654, S495A/S509A); assay: competitive ELISA of binding activity against biotinylated humanized H0L0 antibody; conditions: for antigen binding activity compared with humanized H0L0 antibody: Reference Example 3
soluble GPC3 core polypeptide (Homo sapiens, UniProt P51654, S495A/S509A), sequence (P51654 with tags, fused parts or gaps S495A/S509A): as the sequence (P51654 other isoform, or with tags, fused parts or gaps limits assumed) above
Description: The humanized H0L0 antibody and its point mutation-modified antibodies purified in (1) was evaluated by competitive ELISA. 100 μL of the soluble GPC3 core polypeptide (SEQ ID NO: 36) at 1 μg/mL was added to each well of a 96-well plate. The soluble GPC3 core polypeptide was immobilized on the plate by allowing the plate to stand overnight at 4° C. The soluble GPC3 core polypeptide immobilized on the plate was washed 3 times with a washing buffer using a Skan WASHER400 (Molecular Devices); and blocked with 200 μL blocking buffer at 4° C. for at least 30 min. The blocked plate on which soluble GPC3 core polypeptide was immobilized was then washed 3 times with washing buffer using the Skan WASHER400. Subsequently, each well of the plate received 200 μL of a mixture containing 100 μL of biotinylated humanized H0L0 antibody (final concentration=0.3 μg/mL) and 100 μL of the humanized H0L0 antibody or its point mutation-modified antibody (at various concentrations). The humanized H0L0 antibody was biotinylated using a Biotin Labeling Kit (Roche) according to the instructions provided with the kit. The plate was left stand for 1 hour at room temperature, then washed 5 times with washing buffer using the Skan WASHER400 (Molecular Devices). 100 μL goat anti-streptavidin alkaline phosphatase (ZYMED), diluted 20,000× with substrate buffer, was added to each well, and the resulting plate was left stand for 1 hour at room temperature, and then washed 5 times with washing buffer using the Skan WASHER400. Phosphatase Substrate (Sigma) was prepared at 1 mg/mL in the substrate buffer, added at 100 μL, per well for 1 hour. The absorbance at 405 nm of the reaction solution in each well was measured using a Benchmark Plus (BIO-RAD), with the control absorbance at 655 nm.
The binding activity to the antigen glypican 3 of each point mutation pI modified antibody was measured using the method described in Reference Example 3.

[6] = pI value by electrophoresis with PhastGel IEF 4-6.5, Reference Example 4; type: physicochemical; conditions: for pI value: PhastGel IEF 4-6.5
Description: The pI values of the Hd1.8Ld1.6 antibody and pH7pL16 antibody were measured by electrophoresis with PhastGel IEF 4-6.5 (GE Healthcase) using the method described in Reference Example 3 or similar method.

[7] = Tm of Fabs by VP-DSC, Reference Example 4; type: physicochemical; conditions: PBS, 20° C. to 115° C., about 4K/min
Description: The Tm values of Fabs obtained from Hd1.8Ld1.6 antibody and pH7pL16 antibody were measured with VP-DSC (Micro Cal) using the method similar to Reference Example 3. In this experiment, PBS was used as a dialysis solution, and the antibody concentration in the test solution for DSC measurement was adjusted to 25-100 μg/ml. DSC scanning was set from 20° C. to 115° C. at the scanning rate of about 4K/min, with the reference solution (dialysis solution) and DSC measurement test solution. The thermal denaturation midpoint temperature of the Fabs of the Hd1.8Ld1.6 antibody and pH7pL16 antibody was 77.5 and 74.7° C., respectively.

[8] = pI value by isoelectric electrophoresis, Reference Example 3; type: physicochemical
Description: The pI value of each antibody was calculated based on the analysis by isoelectric electrophoresis. Electrophoresis was carried out as described in the following. Using a Phast-System Cassette (Amersham Bioscience), Phast-Gel Dry IEF (Amersham Bioscience) gel was swollen for about 60 minutes with a swelling solution with the composition given below.
• 1.5 mL 10% glycerol • 100 μL Pharmalyte 8-10.5 for IEF (Amersham Bioscience)
• 1.5 mL purified water • 20 μL Pharmalyte 8-10.5 for IEF (Amersham Bioscience) • 80 μL Pharmalyte 5-8 for IEF (Amersham Bioscience)
Approximately 0.5 μg antibody was loaded on the swollen gel and isoelectric electrophoresis was run using the PhastSystem (Amersham Bioscience) controlled by the program described below. The sample was added to the gel at Step 2 of this program. A Calibration Kit for pI (Amersham Bioscience) was used for the pI markers.
After electrophoresis, the gel was fixed with 20% TCA and silver staining was then carried out using a Silver Staining Kit, Protein (Amersham Bioscience) according to the instructions provided with the kit. After staining, the isoelectric point of each antibody (test sample) was calculated based on the already known isoelectric points of the pI markers.

Molecule: CNC(=O)c1cc(Oc2ccc(NC(=O)Nc3ccc(Cl)c(C(F)(F)F)c3)cc2)ccn1 [Sorafenib, 4-[4-[[4-chloro-3-(trifluoromethyl)phenyl]carbamoylamino]phenoxy]-N-methylpyridine-2-carboxamide]
tumor growth, single agent (HuH-7 xenograft): suppressed | weight loss with Sorafenib alone [1]: enhanced | weight loss with Sorafenib alone [2]: further enhanced

Molecule: CS(=O)(=O)CCNCc1ccc(-c2ccc3ncnc(Nc4ccc(OCc5cccc(F)c5)c(Cl)c4)c3c2)o1 [lapatinib]
rate of response (liver cancer): 0% | time to progression (liver cancer): 1.8 months

Molecule: Synagis: example of existing antibodies
Tm value (thermal denaturation midpoint temperature) [3]: 85.4 °C

B1: GC33: Mouse anti-human glypican 3 monoclonal antibody, clone GC33, WO 2006/006693; variable regions SEQ ID NOs: 1 and 2 (antibody, V domains shown)
VH: QVQLQQSGAELVRPGASVKLSCKASGYTFTDYEMHWVKQTPVHGLKWIGALDPKTGDTAYSQKFKGKATLTADKSSSTAYMELRSLTSEDSAVYYCTRFYSYTYWGQGTLVTVSA
VL: DVVMTQTPLSLPVSLGDQASISCRSSQSLVHSNGNTYLHWYLQKPGQSPKLLIYKVSNRFSGVPDRFSGSGSGTDFTLKISRVEAEDLGVYFCSQNTHVPPTFGSGTKLEIK
modifications: Modified antibody
ADCC and CDC activities (liver cancer cells): greater

binding result [4]: binds
B2: H15L4 antibody (antibody, V domains shown)
VH: QVQLVQSGAEVKKPGASVKVSCKASGYTFTDYEMHWIRQPPGQGLEWIGAIDPKTGDTAYSQKFKGRVTLTADKSTSTAYMELSSLTSEDTAVYYCTRFYSYTYWGQGTLVTVSS
VL: DIVMTQSPLSLPVTPGEPASISCRSSQSLVHSNRNTYLHWYQQKPGQAPRLLIYKVSNRFSGVPDRFSGSGSGTDFTLKISRVEAEDVGVYYCSQNTHVPPTFGQGTKLEIK

B3: hGC33: humanized anti-glypican 3 antibody, H chain variable region SEQ ID NO: 3, L chain SEQ ID NO: 4 (antibody, V domains shown)
VH: QVQLVQSGAEVKKPGASVKVSCKASGYTFTDYEMHWVRQAPGQGLEWMGALDPKTGDTAYSQKFKGRVTLTADKSTSTAYMELSSLTSEDTAVYYCTRFYSYTYWGQGTLVTVSS
VL: DVVMTQSPLSLPVTPGEPASISCRSSQSLVHSNGNTYLHWYLQKPGQSPQLLIYKVSNRFSGVPDRFSGSGSGTDFTLKISRVEAEDVGVYYCSQNTHVPPTFGQGTKLEIK
modifications: Modified antibody
tumor growth, single agent (HuH-7 xenograft): suppressed

antigen binding activity compared with humanized H0L0 antibody [5]: about the same
B4: H15L4: antibody combining heavy chain H15 (SEQ ID NO: 34) and light chain L4 (SEQ ID NO: 35) (antibody, V domains shown)
VH: QVQLVQSGAEVKKPGASVKVSCKASGYTFTDYEMHWIRQPPGQGLEWIGAIDPKTGDTAYSQKFKGRVTLTADKSTSTAYMELSSLTSEDTAVYYCTRFYSYTYWGQGTLVTVSS
VL: DIVMTQSPLSLPVTPGEPASISCRSSQSLVHSNRNTYLHWYQQKPGQAPRLLIYKVSNRFSGVPDRFSGSGSGTDFTLKISRVEAEDVGVYYCSQNTHVPPTFGQGTKLEIK
modifications: Modified antibody

binding activity to glypican 3 compared with humanized H0L0 antibody ([5]; Reference Example 4): comparative
B5: pH7pL16: pI modified humanized anti-glypican 3 antibody, pH7 (SEQ ID NO:31) and pL16 (SEQ ID NO:33) (antibody, V domains shown)
VH: QVQLVQSGAEVKKPGASVTVSCKASGYTFTDYEMHWIRQPPGEGLEWIGAIDPKTGDTAYSESFQDRVTLTADKSTSTAYMELSSLTSEDTAVYYCTRFYSYTYWGQGTLVTVSS
VL: DIVMTQSPLSLPVTPGEPASISCQASESLVHSNRNTYLHWYLQKPGQSPQLLIYKVSNRFSGVPDRFSGSGSGTDFTLKISRVEAEDVGVYYCSQNTHVPPTFGQGTKVEIE
modifications: Modified antibody
pI lower than that of Hd1.8Ld1.6 antibody by [6]: 0.95 | pI value [6]: 6.52 | thermal denaturation midpoint temperature of the Fabs [7]: 74.7 °C

antigen binding activity compared with humanized H0L0 antibody [5]: about the same
B6: Hd1.8Ld1.6: antibody composed of Hspd1.8 (SEQ ID NO: 27) and Lspd1.6 (SEQ ID NO: 29), lowered pI (antibody, V domains shown)
VH: QVQLVQSGAEVKKPGASVTVSCKASGYTFTDYEMHWIRQPPGEGLEWIGAIDPKTGDTAYSQSFQDRVTLTADKSTSTAYMELSSLTSEDTAVYYCTRFYSYTYWGQGTLVTVSS
VL: DIVMTQSPLSLPVTPGEPASISCRASESLVHSNRNTYLHWYQQKPGQAPRLLIYKVSNRFSGVPDRFSGSGSGTDFTLTISSLQAEDVGVYYCSQNTHVPPTFGQGTKLEIK
modifications: Modified antibody
pI value [6]: 7.47 | reduction of pI relative to humanized H0L0 antibody [8]: 1.5 | pI value ([8]; isoelectric electrophoresis, Phast-Gel Dry IEF): 7.4 | thermal denaturation midpoint temperature of the Fabs [7]: 77.5 °C

binding result [4]: binds
B7: Hspd1.8Lspd1.6 (Hd1.8Ld1.6) antibody (antibody, V domains shown)
VH: QVQLVQSGAEVKKPGASVTVSCKASGYTFTDYEMHWIRQPPGEGLEWIGAIDPKTGDTAYSQSFQDRVTLTADKSTSTAYMELSSLTSEDTAVYYCTRFYSYTYWGQGTLVTVSS
VL: DIVMTQSPLSLPVTPGEPASISCRASESLVHSNRNTYLHWYQQKPGQAPRLLIYKVSNRFSGVPDRFSGSGSGTDFTLTISSLQAEDVGVYYCSQNTHVPPTFGQGTKLEIK
